T1: human EphB2 extracellular region-SEAP-His protein (human, UniProt P29323 19-543)
T1 construct: extracellular domain; also called hEphB2-SEAP-His
T1 sequence (looked up): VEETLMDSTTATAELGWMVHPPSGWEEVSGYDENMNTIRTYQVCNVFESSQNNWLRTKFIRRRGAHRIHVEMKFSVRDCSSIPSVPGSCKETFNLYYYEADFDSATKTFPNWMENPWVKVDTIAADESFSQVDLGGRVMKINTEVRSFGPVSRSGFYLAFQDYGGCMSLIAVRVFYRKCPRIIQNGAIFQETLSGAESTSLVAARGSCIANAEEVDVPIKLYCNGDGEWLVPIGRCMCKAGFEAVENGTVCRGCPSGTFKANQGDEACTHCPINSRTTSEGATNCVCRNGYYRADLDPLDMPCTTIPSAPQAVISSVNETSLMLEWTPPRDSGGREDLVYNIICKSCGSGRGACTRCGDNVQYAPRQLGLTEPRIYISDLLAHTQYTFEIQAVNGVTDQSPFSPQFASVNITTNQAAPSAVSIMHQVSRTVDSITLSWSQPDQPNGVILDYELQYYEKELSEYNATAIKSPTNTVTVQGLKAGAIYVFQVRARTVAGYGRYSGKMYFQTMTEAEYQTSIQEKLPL


Experiments:
[1] = target: T1, human EphB2 extracellular …; assay: ELISA
[2] = target: T2, human EphA4 extracellular region-SEAP-His protein (human, UniProt P54764 20-547); assay: competition ELISA, competitor human Ephrin A5-Fc
T2 construct: also called hEphA4-SEAP-His
In short: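 Anti-alkaline phosphatase-coated plates captured EphA4-SEAP-His (10 nM final), then antibody (0–3000 nM serial dilutions) and biotinylated Ephrin A5-Fc (0.7 nM final) were co-added for 1 h at room temperature. Bound ligand detected with HRP-streptavidin and TMBZ, stopped with 1N H₂SO₄, A450 read.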

[3] = target: T2, human EphA4 extracellular …; assay: SPR, Ab captured
In short: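 Antibodies captured (~30–60 RU) on a protein A chip, or for antibody A on immobilized rat anti-mouse IgG1, in HBS-EP. Human EphA4 extracellular region-SEAP-His at 0.6–50 nM injected in ascending order without regeneration, with 120 s association and 900 s dissociation. KD=kd/ka from 1:1 binding model fits.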

T2 sequence (P54764 20-547): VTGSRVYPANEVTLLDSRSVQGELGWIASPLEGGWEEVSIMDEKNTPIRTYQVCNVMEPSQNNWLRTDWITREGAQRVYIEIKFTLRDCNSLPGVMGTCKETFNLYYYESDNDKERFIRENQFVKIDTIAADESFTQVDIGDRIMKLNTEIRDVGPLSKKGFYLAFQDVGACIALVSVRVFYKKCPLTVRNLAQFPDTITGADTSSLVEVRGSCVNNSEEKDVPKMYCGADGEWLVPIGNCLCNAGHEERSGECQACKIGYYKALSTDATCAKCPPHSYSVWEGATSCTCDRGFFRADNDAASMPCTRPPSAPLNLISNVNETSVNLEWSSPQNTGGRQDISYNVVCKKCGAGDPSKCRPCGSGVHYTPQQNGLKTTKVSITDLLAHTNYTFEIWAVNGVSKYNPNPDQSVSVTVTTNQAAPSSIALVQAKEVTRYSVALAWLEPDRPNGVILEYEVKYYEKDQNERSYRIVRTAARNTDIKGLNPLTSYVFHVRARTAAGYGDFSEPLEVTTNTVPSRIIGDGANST

| Binder | A450 as % of hEphA4-SEAP-His [1] [%] | IC50 [2] [nM] | Kd [3] [nM] | koff [3] [s⁻¹] | kon [3] [M⁻¹ s⁻¹] |
| --- | --- | --- | --- | --- | --- |
| humanized antibody No. 143 (antibody, human IgG2, human Ig kappa; also called L1-4/HK4) heavy: QIQLVQSGSELKKPGASVKVSCKASGYTFTDYSMHWVRQAPGQGLKWMGWINTETGEPTYADDFKGRFVFSLDTSVSTAYLQISSLKAEDTAVYYCARIPLYYYGSRYWYFDVWGQGTTVTVSSASTKGPSVFPLAPSSRSTSESTAALGCLVKDYFPEPVTVSWNSGALTSGVHTFPAVLQSSGLYSLSSVVTVPSSNFGTQTYTCNVDHKPSNTKVDKTVERKSCVECPPCPAPPAAAPSVFLFPPKPKDTLMISRTPEVTCVVVDVSHEDPEVQFNWYVDGVEVHNAKTKPREEQFNSTFRVVSVLTVVHQDWLNGKEYKCKVSNKGLPAPIEKTISKTKGQPREPQVYTLPPSREEMTKNQVSLTCLVKGFYPSDIAVEWESNGQPENNYKTTPPMLDSDGSFFLYSKLTVDKSRWQQGNVFSCSVMHEALHNHYTQKSLSLSPG light: DIQMTQSPSSLSASVGDRVTITCRASENIYRNLAWYQQKPGKAPKLLVYAATNLADGVPSRFSGSGSGTDYTLTISSLQPEDFATYYCQHFWGTPWTFGQGTKVEIKRTVAAPSVFIFPPSDEQLKSGTASVVCLLNNFYPREAKVQWKVDNALQSGNSQESVTEQDSKDSTYSLSSTLTLSKADYEKHKVYACEVTHQGLSSPVTKSFNRGEC | 5.8 | 5.3 | 1.5 | 0.00051 | 350000 |
| humanized antibody No. 152 (antibody, human IgG2, human Ig kappa; also called L1-5/HA1) heavy: QVQLVQSGSELKKPGASVKVSCKASGYTFTDYSMHWVRQAPGQGLEWMGWINTETGEPTYAQGFTGRFVFSLDTSVSTAYLQISSLKAEDTAVYYCARIPLYYYGSRYWYFDVWGQGTTVTVSSASTKGPSVFPLAPSSRSTSESTAALGCLVKDYFPEPVTVSWNSGALTSGVHTFPAVLQSSGLYSLSSVVTVPSSNFGTQTYTCNVDHKPSNTKVDKTVERKSCVECPPCPAPPAAAPSVFLFPPKPKDTLMISRTPEVTCVVVDVSHEDPEVQFNWYVDGVEVHNAKTKPREEQFNSTFRVVSVLTVVHQDWLNGKEYKCKVSNKGLPAPIEKTISKTKGQPREPQVYTLPPSREEMTKNQVSLTCLVKGFYPSDIAVEWESNGQPENNYKTTPPMLDSDGSFFLYSKLTVDKSRWQQGNVFSCSVMHEALHNHYTQKSLSLSPG light: DIQMTQSPSSLSASVGDRVTITCRASENIYRNLAWYQQKPGKAPKLLLYAATNLADGVPSRFSGSGSGTDYTLTISSLQSEDFATYYCQHFWGTPWTFGQGTKVEIKRTVAAPSVFIFPPSDEQLKSGTASVVCLLNNFYPREAKVQWKVDNALQSGNSQESVTEQDSKDSTYSLSSTLTLSKADYEKHKVYACEVTHQGLSSPVTKSFNRGEC | 5.8 | 2 | 2 | 0.00082 | 400000 |
| humanized antibody No. 145 (antibody, human IgG2, human Ig kappa; also called L1-5/HK2) heavy: QVQLVQSGSELKKPGASVKVSCKASGYTFTDYSMHWVRQAPGQGLKWMGWINTETGEPTYADDFKGRFVFSLDTSVSTAYLQISSLKAEDTAVYYCARIPLYYYGSRYWYFDVWGQGTTVTVSSASTKGPSVFPLAPSSRSTSESTAALGCLVKDYFPEPVTVSWNSGALTSGVHTFPAVLQSSGLYSLSSVVTVPSSNFGTQTYTCNVDHKPSNTKVDKTVERKSCVECPPCPAPPAAAPSVFLFPPKPKDTLMISRTPEVTCVVVDVSHEDPEVQFNWYVDGVEVHNAKTKPREEQFNSTFRVVSVLTVVHQDWLNGKEYKCKVSNKGLPAPIEKTISKTKGQPREPQVYTLPPSREEMTKNQVSLTCLVKGFYPSDIAVEWESNGQPENNYKTTPPMLDSDGSFFLYSKLTVDKSRWQQGNVFSCSVMHEALHNHYTQKSLSLSPG light: DIQMTQSPSSLSASVGDRVTITCRASENIYRNLAWYQQKPGKAPKLLLYAATNLADGVPSRFSGSGSGTDYTLTISSLQSEDFATYYCQHFWGTPWTFGQGTKVEIKRTVAAPSVFIFPPSDEQLKSGTASVVCLLNNFYPREAKVQWKVDNALQSGNSQESVTEQDSKDSTYSLSSTLTLSKADYEKHKVYACEVTHQGLSSPVTKSFNRGEC | 6.7 | 3.7 | 2 | 0.00065 | 330000 |
| humanized antibody No. 144 (antibody, human IgG2, human Ig kappa; also called L1-6/HK1) heavy: QVQLVQSGSELKKPGASVKVSCKASGYTFTDYSMHWVRQAPGQGLEWMGWINTETGEPTYADDFKGRFVFSLDTSVSTAYLQISSLKAEDTAVYYCARIPLYYYGSRYWYFDVWGQGTTVTVSSASTKGPSVFPLAPSSRSTSESTAALGCLVKDYFPEPVTVSWNSGALTSGVHTFPAVLQSSGLYSLSSVVTVPSSNFGTQTYTCNVDHKPSNTKVDKTVERKSCVECPPCPAPPAAAPSVFLFPPKPKDTLMISRTPEVTCVVVDVSHEDPEVQFNWYVDGVEVHNAKTKPREEQFNSTFRVVSVLTVVHQDWLNGKEYKCKVSNKGLPAPIEKTISKTKGQPREPQVYTLPPSREEMTKNQVSLTCLVKGFYPSDIAVEWESNGQPENNYKTTPPMLDSDGSFFLYSKLTVDKSRWQQGNVFSCSVMHEALHNHYTQKSLSLSPG light: DIQMTQSPSSLSASVGDRVTITCRASENIYRNLAWYQQKPGKAPQLLLYAATNLADGVPSRFSGSGSGTDYTLTISSLQPEDFATYYCQHFWGTPWTFGQGTKVEIKRTVAAPSVFIFPPSDEQLKSGTASVVCLLNNFYPREAKVQWKVDNALQSGNSQESVTEQDSKDSTYSLSSTLTLSKADYEKHKVYACEVTHQGLSSPVTKSFNRGEC | 5.7 | 3.6 | 2 | 0.00078 | 400000 |
| humanized antibody No. 151 (antibody, human IgG2, human Ig kappa; also called L1-5/HA4) heavy: QIQLVQSGSELKKPGASVKVSCKASGYTFTDYSMHWVRQAPGQGLKWMGWINTETGEPTYAQGFTGRFVFSLDTSVSTAYLQISSLKAEDTAVYYCARIPLYYYGSRYWYFDVWGQGTTVTVSSASTKGPSVFPLAPSSRSTSESTAALGCLVKDYFPEPVTVSWNSGALTSGVHTFPAVLQSSGLYSLSSVVTVPSSNFGTQTYTCNVDHKPSNTKVDKTVERKSCVECPPCPAPPAAAPSVFLFPPKPKDTLMISRTPEVTCVVVDVSHEDPEVQFNWYVDGVEVHNAKTKPREEQFNSTFRVVSVLTVVHQDWLNGKEYKCKVSNKGLPAPIEKTISKTKGQPREPQVYTLPPSREEMTKNQVSLTCLVKGFYPSDIAVEWESNGQPENNYKTTPPMLDSDGSFFLYSKLTVDKSRWQQGNVFSCSVMHEALHNHYTQKSLSLSPG light: DIQMTQSPSSLSASVGDRVTITCRASENIYRNLAWYQQKPGKAPKLLLYAATNLADGVPSRFSGSGSGTDYTLTISSLQSEDFATYYCQHFWGTPWTFGQGTKVEIKRTVAAPSVFIFPPSDEQLKSGTASVVCLLNNFYPREAKVQWKVDNALQSGNSQESVTEQDSKDSTYSLSSTLTLSKADYEKHKVYACEVTHQGLSSPVTKSFNRGEC | 7 | 2 | 1.7 | 0.00053 | 320000 |

Second part, the binder after the results:

| A450 as % of hEphA4-SEAP-His [1] [%] | IC50 [2] [nM] | Kd [3] [nM] | koff [3] [s⁻¹] | kon [3] [M⁻¹ s⁻¹] | Binder |
| --- | --- | --- | --- | --- | --- |
| 6.2 | 2.5 | 2.2 | ~0.00085 | 390000 | humanized antibody No. 154 (antibody, human IgG2, human Ig kappa; also called L1-5/HK1) heavy: QVQLVQSGSELKKPGASVKVSCKASGYTFTDYSMHWVRQAPGQGLEWMGWINTETGEPTYADDFKGRFVFSLDTSVSTAYLQISSLKAEDTAVYYCARIPLYYYGSRYWYFDVWGQGTTVTVSSASTKGPSVFPLAPSSRSTSESTAALGCLVKDYFPEPVTVSWNSGALTSGVHTFPAVLQSSGLYSLSSVVTVPSSNFGTQTYTCNVDHKPSNTKVDKTVERKSCVECPPCPAPPAAAPSVFLFPPKPKDTLMISRTPEVTCVVVDVSHEDPEVQFNWYVDGVEVHNAKTKPREEQFNSTFRVVSVLTVVHQDWLNGKEYKCKVSNKGLPAPIEKTISKTKGQPREPQVYTLPPSREEMTKNQVSLTCLVKGFYPSDIAVEWESNGQPENNYKTTPPMLDSDGSFFLYSKLTVDKSRWQQGNVFSCSVMHEALHNHYTQKSLSLSPG light: DIQMTQSPSSLSASVGDRVTITCRASENIYRNLAWYQQKPGKAPKLLLYAATNLADGVPSRFSGSGSGTDYTLTISSLQSEDFATYYCQHFWGTPWTFGQGTKVEIKRTVAAPSVFIFPPSDEQLKSGTASVVCLLNNFYPREAKVQWKVDNALQSGNSQESVTEQDSKDSTYSLSSTLTLSKADYEKHKVYACEVTHQGLSSPVTKSFNRGEC |
| 5.9 | 2.3 | 2.1 | 0.0006 | 290000 | humanized antibody No. 153 (antibody, human IgG2, human Ig kappa; also called L1-5/HA2) heavy: QVQLVQSGSELKKPGASVKVSCKASGYTFTDYSMHWVRQAPGQGLKWMGWINTETGEPTYAQGFTGRFVFSLDTSVSTAYLQISSLKAEDTAVYYCARIPLYYYGSRYWYFDVWGQGTTVTVSSASTKGPSVFPLAPSSRSTSESTAALGCLVKDYFPEPVTVSWNSGALTSGVHTFPAVLQSSGLYSLSSVVTVPSSNFGTQTYTCNVDHKPSNTKVDKTVERKSCVECPPCPAPPAAAPSVFLFPPKPKDTLMISRTPEVTCVVVDVSHEDPEVQFNWYVDGVEVHNAKTKPREEQFNSTFRVVSVLTVVHQDWLNGKEYKCKVSNKGLPAPIEKTISKTKGQPREPQVYTLPPSREEMTKNQVSLTCLVKGFYPSDIAVEWESNGQPENNYKTTPPMLDSDGSFFLYSKLTVDKSRWQQGNVFSCSVMHEALHNHYTQKSLSLSPG light: DIQMTQSPSSLSASVGDRVTITCRASENIYRNLAWYQQKPGKAPKLLLYAATNLADGVPSRFSGSGSGTDYTLTISSLQSEDFATYYCQHFWGTPWTFGQGTKVEIKRTVAAPSVFIFPPSDEQLKSGTASVVCLLNNFYPREAKVQWKVDNALQSGNSQESVTEQDSKDSTYSLSSTLTLSKADYEKHKVYACEVTHQGLSSPVTKSFNRGEC |

Reference: US20190077860A1 (EISAI R AND D MANAGEMENT, published 2019)
